Measurements: publication PMC9440762

Target: P72509
Test: SEC; C-PC dialysed overnight against 8 M urea and 30 mM β-mercaptoethanol, then loaded on Superdex 200 Increase 5/150 in urea-free 75 mM phosphate buffer pH 7.9; partial reassociation during the run

B1: C-phycocyanin αβ monomer (heterodimer of the α and β subunits) from Arthrospira platensis (protein)
chain 1: not shown
chain 2: MFDAFTKVVSQADTRGEMLSTAQIDALSQMVAESNKRLDAVNRITSNASTIVSNAARSLFAEQPQLIAPGGNAYTSRRMAACLRDMEIILRYVTYAVFAGDASVLEDRCLNGLRETYLALGTPGSSVAVGVGKMKEAALAIVNDPAGITPGDCSALASEIASYFDRACAAVS
yield of the state with the initial hydrodynamic characteristics after renaturation from 8 M urea: 9.6%
